The record followed here is article PMC9468158, “Transmembrane helices mediate the formation of a stable ternary complex of b5R, cyt b5, and SCD1” (Communications Biology, 2022).

Substitutions are numbered along the chain they refer to. Numbers in names are those of the source.

Assay [1] deals with T1, full-length b5R, released from the linker-cleaved cyt b5-b5R fusion (mouse, UniProt Q9DCN2 1-301).
T1 sequence (looked up): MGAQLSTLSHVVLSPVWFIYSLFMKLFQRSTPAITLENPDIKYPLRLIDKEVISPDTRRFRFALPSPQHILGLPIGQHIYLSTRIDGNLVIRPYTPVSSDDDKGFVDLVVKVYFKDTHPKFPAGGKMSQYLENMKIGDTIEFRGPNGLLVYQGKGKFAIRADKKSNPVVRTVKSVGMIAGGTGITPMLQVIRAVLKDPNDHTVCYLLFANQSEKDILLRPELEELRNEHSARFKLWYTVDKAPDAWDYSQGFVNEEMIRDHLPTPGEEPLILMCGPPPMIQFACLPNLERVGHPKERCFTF
The assay can be described thus: cell-based or functional assay.

Assay [2] has as its target T2, SCD1, released from the linker-cleaved SCD1-cyt b5-b5R fusions (mouse, UniProt P13516 1-355).
T2 construct: stearoyl-CoA desaturase-1 (SCD1), mouse, UniProt P13516; stands for the SCD1 chain of the ternary fusion of the full-length proteins and of the sample with soluble cyt b5 and b5R; surmised: linker residues are left after TEV cleavage; not shown: GFP, N-terminal, cleaved
T2 sequence (looked up): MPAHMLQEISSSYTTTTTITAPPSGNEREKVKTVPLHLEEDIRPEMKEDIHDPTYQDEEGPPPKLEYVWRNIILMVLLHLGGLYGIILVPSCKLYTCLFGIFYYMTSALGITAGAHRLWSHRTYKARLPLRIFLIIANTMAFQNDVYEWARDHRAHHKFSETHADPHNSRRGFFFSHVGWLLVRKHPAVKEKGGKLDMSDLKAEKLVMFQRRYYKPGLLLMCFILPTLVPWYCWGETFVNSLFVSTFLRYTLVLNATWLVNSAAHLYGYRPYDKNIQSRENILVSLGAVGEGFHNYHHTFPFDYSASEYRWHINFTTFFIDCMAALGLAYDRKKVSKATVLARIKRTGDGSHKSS
The assay can be described thus: SEC; ternary fusion SCD1-cyt b5-b5R purified, linkers cleaved by TEV protease, Superdex 200 10/300 GL in 20 mM HEPES pH 7.5, 150 mM NaCl, 1 mM DDM; three proteins in the sample. As to conditions: both partners purified. (In gel filtration, larger molecules generally elute earlier.)

In assay [3] the target is T3, SCD1, released from the linker-cleaved SCD1-cyt b5 fusions (mouse, UniProt P13516 1-355).
T3 construct: stearoyl-CoA desaturase-1 (SCD1), mouse, UniProt P13516; stands for the SCD1 chain of the fusion with full-length cyt b5 (wild type and TM mutants) and of the fusion with the soluble domain of cyt b5; the GFP tag stood at the C-terminus of the fusion; surmised: ENLYFQ is left at the C-terminus after cleavage
T3 sequence (looked up): T2 sequence (looked up)
Put plainly: SEC; binary fusion protein purified, linker cleaved by TEV protease, Superdex 200 10/300 GL in 20 mM HEPES pH 7.5, 150 mM NaCl, 1 mM DDM; elution compared with the tethered fusion. The settings on record: both partners purified.

In assay [4] the target is T1, full-length b5R, released from the …. The assay can be described thus: SEC; TM mutants in the linker-cleavable fusions, purified and cleaved by TEV protease; SRE-10C SEC-300 (Sepax) on HPLC, FPLC buffer, 0.75 mL/min; heme absorbance (413 nm by the results, 423 nm by the methods) gives the ratio of heterodimer to monomeric cyt b5. The settings on record: both partners purified.

Assay [5] deals with T3, SCD1, released from the linker-cleaved …. The assay is described as above. The settings on record: both partners purified.
Another assay has as its target T4, soluble b5R (24-301) (mouse, UniProt Q9DCN2 24-301).
T4 construct: source: E. coli BL21(DE3) (pET vector), purified (procedures similar to those for the full-length proteins)
T4 sequence (looked up): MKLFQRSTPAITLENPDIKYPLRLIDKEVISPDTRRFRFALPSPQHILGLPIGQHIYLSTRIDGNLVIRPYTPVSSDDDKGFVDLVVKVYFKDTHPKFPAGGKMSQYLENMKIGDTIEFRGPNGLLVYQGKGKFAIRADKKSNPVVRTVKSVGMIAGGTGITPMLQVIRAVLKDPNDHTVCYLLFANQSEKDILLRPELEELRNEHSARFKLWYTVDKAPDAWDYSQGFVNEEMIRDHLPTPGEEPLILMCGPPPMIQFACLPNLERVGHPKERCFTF
Put plainly: BLI; Octet, 30 °C, 1000 rpm; soluble cyt b5 coupled to AR2G (amine reactive) biosensors; analytes soluble b5R or SCD1 at 5, 2.5 and 1.25 µM; FPLC buffer (20 mM HEPES pH 7.5, 150 mM NaCl, 1 mM DDM) plus 0.1% BSA; KD from kon and koff of 1-exponential fits. The settings on record: both partners purified. (In general: BLI is a label-free optical method that tracks binding on a fibre tip over time.)

For assay [6], the target named is T5, SCD1, individual purified protein (mouse, UniProt P13516 1-355).
T5 construct: stearoyl-CoA desaturase-1 (SCD1), mouse, UniProt P13516; surmised: ENLYFQ of the TEV site is left at the C-terminus; source: HEK 293S (BacMam), purified (GFP nanobody resin, released by TEV protease, SEC in 1 mM DDM); not shown: GFP, C-terminal, cleaved
T5 sequence (looked up): T2 sequence (looked up)
The assay is described as above. The settings on record: both partners purified.

B1: full-length cyt b5, released from the linker-cleaved cyt b5-b5R fusion (natural protein, mouse, UniProt P56395 1-134, looked up)
chain: MAGQSDKDVKYYTLEEIQKHKDSKSTWVILHHKVYDLTKFLEEHPGGEEVLREQAGGDATENFEDVGHSTDARELSKTYIIGELHPDDRSKIAKPSDTLITTVESNSSWWTNWVIPAISALAVALMYRLYMAED
As for B1, in assay [1], the “difference of the electron transfer rate between no NaCl and 150 mM NaCl, stable binary complex” value came out at 1.04 fold; the “rate of electron transfer from b5R to cyt b5 (k1, reduction of cyt b5) in the stable binary complex against the mixture of the individual proteins, 150 mM NaCl” value was approximately 34 fold.

B2: full-length cyt b5, released from the linker-cleaved SCD1-cyt b5-b5R fusion (natural protein, mouse, UniProt P56395 1-134, looked up)
chain: B1 chain
notes: cytochrome b5, mouse, UniProt P56395; surmised: linker residues are left after TEV cleavage
Consider B2, for which the binding result in assay [2] was “binds”.

B3: full-length cyt b5, released from the linker-cleaved SCD1-cyt b5 fusion (natural protein, mouse, UniProt P56395 1-134, looked up)
chain: B1 chain
notes: cytochrome b5, mouse, UniProt P56395; surmised: G at the N-terminus and ENLYFQ at the C-terminus are left after TEV cleavage; not shown: GFP, C-terminal, cleaved
For B3, the binding result in assay [3] is given as “binds”.

B4: cyt b5 A122W, released from the linker-cleaved cyt b5-b5R-TEV chimera (natural protein, mouse, UniProt P56395 1-134, looked up)
chain: B1 chain with A122W
notes: cytochrome b5, mouse, UniProt P56395; as m6 with the mutation; source: High Five cells (Bac-to-Bac), purified as a fusion with b5R, cleaved by TEV protease
Consider B4, for which, in assay [4], the binding result is “binds”.

B5: cyt b5 A122W, released from the linker-cleaved SCD1-cyt b5-TEV chimera (natural protein, mouse, UniProt P56395 1-134, looked up)
chain: B1 chain with A122W
notes: cytochrome b5, mouse, UniProt P56395; as m11 with the mutation; source: HEK 293S (BacMam), purified as a fusion with SCD1, cleaved by TEV protease; not shown: GFP, C-terminal, cleaved
For the molecule B5, the “percent dissociation of the complex” value in assay [5] was approximately 40%.

B6: cyt b5 L121W, released from the linker-cleaved SCD1-cyt b5-TEV chimera (natural protein, mouse, UniProt P56395 1-134, looked up)
chain: B1 chain with L121W
notes: as for B5
As to B6, in assay [5], the “percent dissociation of the complex” value was approximately 40%.

B7: cyt b5 S119A, released from the linker-cleaved cyt b5-b5R-TEV chimera (natural protein, mouse, UniProt P56395 1-134, looked up)
chain: B1 chain with S119A
notes: as for B4
As to B7, the binding result in assay [4] was “binds”.

B8: cyt b5 A124W, released from the linker-cleaved cyt b5-b5R-TEV chimera (natural protein, mouse, UniProt P56395 1-134, looked up)
chain: B1 chain with A124W
notes: as for B4
As for B8, the “percent dissociation of the complex” value in assay [4] is approximately 40%.

B9: cyt b5 V123W, released from the linker-cleaved cyt b5-b5R-TEV chimera (natural protein, mouse, UniProt P56395 1-134, looked up)
chain: B1 chain with V123W
notes: as for B4
Consider B9, for which the binding result in assay [4] was “binds”.

B10: cyt b5 M126A, released from the linker-cleaved SCD1-cyt b5-TEV chimera (natural protein, mouse, UniProt P56395 1-134, looked up)
chain: B1 chain with M126A
notes: as for B5
In the case of B10, the “percent dissociation of the complex” value in assay [5] was approximately 50%.

B11: cyt b5 L125W, released from the linker-cleaved SCD1-cyt b5-TEV chimera (natural protein, mouse, UniProt P56395 1-134, looked up)
chain: B1 chain with L125W
notes: as for B5
Regarding B11, the “percent dissociation of the complex” value in assay [5] was approximately 40%.

B12: cyt b5 M126A, released from the linker-cleaved cyt b5-b5R-TEV chimera (natural protein, mouse, UniProt P56395 1-134, looked up)
chain: B1 chain with M126A
notes: as for B4
As for B12, the binding result in assay [4] is “binds”.

B13: cyt b5 Y127A, released from the linker-cleaved cyt b5-b5R-TEV chimera (natural protein, mouse, UniProt P56395 1-134, looked up)
chain: B1 chain with Y127A
notes: as for B4
With B13, the binding result in assay [4] is on record as “binds”.

B14: cyt b5 Y127A, released from the linker-cleaved SCD1-cyt b5-TEV chimera (natural protein, mouse, UniProt P56395 1-134, looked up)
chain: B1 chain with Y127A
notes: as for B5
For B14, in assay [5], the “percent dissociation of the complex” value was approximately 10%.

B15: cyt b5 L121W, released from the linker-cleaved cyt b5-b5R-TEV chimera (natural protein, mouse, UniProt P56395 1-134, looked up)
chain: B1 chain with L121W
notes: as for B4
In the case of B15, the binding result in assay [4] is recorded as “binds”.

B16: cyt b5 R128A, released from the linker-cleaved SCD1-cyt b5-TEV chimera (natural protein, mouse, UniProt P56395 1-134, looked up)
chain: B1 chain with R128A
notes: as for B5
For the molecule B16, the “percent dissociation of the complex” value in assay [5] was approximately 10%.

B17: cyt b5 R128A, released from the linker-cleaved cyt b5-b5R-TEV chimera (natural protein, mouse, UniProt P56395 1-134, looked up)
chain: B1 chain with R128A
notes: as for B4
B17: the “percent dissociation of the complex” value in assay [4] was approximately 40%.

B18: full-length b5R, released from the linker-cleaved SCD1-cyt b5-b5R fusion (enzyme, mouse, UniProt Q9DCN2 1-301, looked up)
chain: T1 sequence (looked up)
notes: no extra residue after the C-terminus of b5R; surmised: a G is left at the N-terminus after TEV cleavage
For the molecule B18, in assay [2], the binding result was “binds”.

B19: soluble cyt b5 (4-89), wild type (domain or fragment, mouse, UniProt P56395 4-89, looked up)
chain: QSDKDVKYYTLEEIQKHKDSKSTWVILHHKVYDLTKFLEEHPGGEEVLREQAGGDATENFEDVGHSTDARELSKTYIIGELHPDDR
notes: cytochrome b5, mouse, UniProt P56395, soluble domain, residues 4-89; coupled by amines to AR2G biosensors; also called cyt b5 (WT); source: E. coli BL21(DE3) (pET vector), purified (procedures similar to those for the full-length proteins)
With B19, the dissociation constant Kd (commonly the equilibrium constant for the complex coming apart) is 2.71 µM with soluble b5R (24-301) and 4.42 µM in assay [6].

B20: soluble cyt b5 (4-89) E49A (domain or fragment, mouse, UniProt P56395 4-89, looked up)
chain: B19 chain with E46A
notes: cytochrome b5, mouse, UniProt P56395, soluble domain, residues 4-89; coupled by amines to AR2G biosensors; also called cyt b5 (E49A); source: E. coli BL21(DE3) (pET vector), purified (procedures similar to those for the full-length proteins)
With B20, the dissociation constant (Kd) stood at 8.45 µM with soluble b5R (24-301) and 8.23 µM in assay [6].

B21: soluble cyt b5 (4-89) E43A (domain or fragment, mouse, UniProt P56395 4-89, looked up)
chain: B19 chain with E40A
notes: cytochrome b5, mouse, UniProt P56395, soluble domain, residues 4-89; coupled by amines to AR2G biosensors; also called cyt b5 (E43A); source: E. coli BL21(DE3) (pET vector), purified (procedures similar to those for the full-length proteins)
Regarding B21, the equilibrium dissociation constant (Kd) in the assay with soluble b5R (24-301) came out at 9.63 µM; in assay [6] it was 11.2 µM.
